From US20040170622A1, “Methods and compositions for modulating XBP-1 activity” (President and Fellows of Harvard College, priority 2002, published 2004)

B1: XBP-1s: vector encoding only the spliced form of murine XBP-1, a protein of 371 aa (protein)
chain: MVVVAAAPSAATAAPKVLLLSGQPASGGRALPLMVPGPRAAGSEASGTPQARKRQRLTHLSPEEKALRRKLKNRVAAQTARDRKKARMSELEQQVVDLEEENHKLQLENQLLREKTHGLVVENQELRTRLGMDTLDPDEVPEVEAKGSGVRLVAGSAESAAGAGPVVTSPEHLPMDSDTVASSDSESDILLGILDKLDPVMFFKCPSPESASLEELPEVYPEGPSSLPASLSLSVGTSSAKLEAINELIRFDHVYTKPLVLEIPSETESQTNVVVKIEEAPLSSSEEDHPEFIVSVKKEPLEDDFIPELGISNLLSSSHCLRPPSCLLDAHSDCGYEGSPSPFSDMSSPLGTDHSWEDTFANELFPQLISV
B2: dn-XBP: dominant negative XBP-1 containing the N-terminal 188 aa, lacking transactivation domain, retaining leucine zipper (protein)
chain: MVVVAAAPSAATAAPKVLLLSGQPASGGRALPLMVPGPRAAGSEASGTPQARKRQRLTHLSPEEKALRRKLKNRVAAQTARDRKKARMSELEQQVVDLEEENHKLQLENQLLREKTHGLVVENQELRTRLGMDTLDPDEVPEVEAKGSGVRLVAGSAESAAGAGPVVTSPEHLPMDSDTVASSDSESD

Tests used:
UPR target genes [1] = assay: Genes induced by XBP-1s in MEF-tet-off-XBP-1s cells (gene array, Northern blot); format: cell-based; details: doxycycline removed for three days
Procedure: XBP-1s expression was induced by culturing the cells for three days in doxycycline free media or by treating with Tm for the indicated time. […] Total RNA was also prepared to measure the expression level of BiP, CHOP, ERdj4, p58^ipk and ATF6α mRNA. (B) Additional XBP-1 dependent target genes identified in gene profiling experiments (Table 2) confirmed by Northern analysis in both XBP-1s MEF-tet-off and XBP-1^−/− MEFs. Ethidium bromide staining of the gels before blotting are shown at the bottom.
293T and MEF cells derived from wild type and XBP-1^−/− embryos were cultured in DMEM supplemented with 10% fetal calf serum (Hyclone Laboratories). MEF-tet-off cells (Clontech) were maintained in the same media with the addition of 100 μg/ml G418 and 1 μg/ml doxycycline. XBP-1s inducible cells were obtained by transfecting MEF-tet-off cells with the TREhyg-XBP-1s plasmid and then selecting in the presence of 400 μg/ml hygromycin B. Several clones were tested for doxycycline-dependent XBP-1s expression, and one was selected for further experiments. MEF-dn-XBP cells were generated by transfecting MEF-tet-off cells with the TREhyg-dn-XBP plasmid. […] ATF6α and β knockdown MEF cells were generated by cotransfecting wild type MEF cells with U6-iATF6α and β and cmv-puromycin or transducing cells with retroviruses containing each RNAi vector.
Total RNA was isolated from MEF cells with TRIZOL reagent (Invitrogen, Carlsbad, Calif.). cDNA synthesis, hybridization and laser scanning of the array were carried out at the Gene Array Technology Center (Brigham and Women's Hospital, Boston, Mass.) with MG-U74A GeneChips which had 6,000 functionally characterized sequences and 6,000 ESTs from the UniGene database (Affymetrix, Santa Clara, Calif.) as recommended by Affymetrix. Data analysis was performed using Affymetrix GeneChip 3.1 software under default parameter setting.
To examine whether XBP-1 itself is sufficient to induce these UPR target genes, the tet-off system was used to establish a cell line in which the spliced form of XBP-1, XBP-1s, is placed downstream of a tetracycline dependent promoter. XBP-1s was induced by removing doxycycline in the culture medium for three days. […] To identify genes that were induced by XBP-1s, total RNAs were prepared from MEF-tet-off-XBP-1s cells cultured in the presence or absence of doxycycline and gene array analysis performed (Table 1). […] In addition, ˜23% of the total pool of analyzed UPR target genes were induced by XBP-1s, although the fold induction tended to be lower than upon Tm treatment. These UPR genes included Herp, BiP, Aremt, AW124049 EST and interferon beta. […] The expression of BiP, CHOP, ERdj4 and p58^ipk was confirmed by Northern blot analysis (FIG. 17A).

UPR target genes [2] = assay: UPR target gene induction by Tm in MEF-dn-XBP cells (Northern blot); format: cell-based; details: 10 μg/ml Tm
Procedure: (A) The 5×ATF6GL3 reporter plasmid was cotransfected with either pCGNATF6α or XBP-u/s plasmids into MEF cells with or without the dominant negative XBP-1 expression plasmid. 100 ng DNA was used for each transfection except for pCDNA3.1, which was added to give 1 μg of DNA in total. Luciferase assays were performed as described in the legend to FIG. 18.(B) MEF and MEF-dn-XBP cells that stably express dominant negative XBP-1 protein were treated with 10 μg/ml Tm for the indicated time periods. Total RNAs were isolated and subjected to Northern blot analysis. The same blot was hybridized sequentially with BiP, CHOP, ERdj4, p58^ipk and ATF6α probes. Ethidium bromide staining of the gel before blotting is shown at the bottom as loading control.
293T and MEF cells derived from wild type and XBP-1^−/− embryos were cultured in DMEM supplemented with 10% fetal calf serum (Hyclone Laboratories). MEF-tet-off cells (Clontech) were maintained in the same media with the addition of 100 μg/ml G418 and 1 μg/ml doxycycline. XBP-1s inducible cells were obtained by transfecting MEF-tet-off cells with the TREhyg-XBP-1s plasmid and then selecting in the presence of 400 μg/ml hygromycin B. Several clones were tested for doxycycline-dependent XBP-1s expression, and one was selected for further experiments. MEF-dn-XBP cells were generated by transfecting MEF-tet-off cells with the TREhyg-dn-XBP plasmid. […]

Molecule	ATF6α induction (UPR target genes [1])	BiP induction (UPR target genes [1])	CHOP induction (UPR target genes [1])	ERdj4 and p58ipk expression (UPR target genes [1])	share of analyzed UPR target genes induced (UPR target genes [1])	induction of CHOP by Tm (UPR target genes [2])	induction of ERdj4 and p58ipk by Tm (UPR target genes [2])
B1	also induced by XBP-1s	only marginally induced	not significantly induced	sufficient to induce ERdj4 and p58^ipk expression	~23%		
B2						suppressed the induction of CHOP	significantly suppressed the induction of XBP-1 target genes, ERdj4 and p58^ipk
